Measurements from the supplement of paper PMC10567573.

B1: ZNF649 (parent)
chain: DECEKAYFYMSCLVKHKRIHSREK
B2: CCND1 (parent)
chain: PEAEENKQIIRKHAQTFVALCATD

Variants of: B1
Assay: protein stability index of a GFP-peptide fusion (GPS, HEK-293T) (PSI 1-6); higher = more stable
Conditions: c terminus: a fixed tail appended
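Also: lentivirally expressed fusions sorted by FACS into six bins by GFP to DsRed ratio, PSI derived from sequencing read proportions per bin multiplied by bin number.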

Variant	protein stability index
DECEKAYFYMSCLVKHKCIHSREK [R18C]	2.32
DECEKAYFYMSCLVKHKRIHYREK [S21Y]	1.87
DECEKAYFYMSCLVNHKRIHSREK [K15N]	3.16
DECEKRYFYMSCLVKHKRIHSREK [A6R]	2.35
DECEKAYFYMSNLVKHKRIHSREK [C12N]	3.38
DECEKAYFYMSCLVKHKRICSREK [H20C]	2.92
DECEKAYFYMSCLVKHKRIHSREI [K24I]	2.12
DECEKAAFYMSCLVKHKRIHSREK [Y7A]	3.53
DECEKAYFYMSCLVKHKRIHSRSK [E23S]	2.23
DECEKAYFYMQCLVKHKRIHSREK [S11Q]	3.03
DECEKAYFYMSCLVKHDRIHSREK [K17D]	2.85
DECEKAYYYMSCLVKHKRIHSREK [F8Y]	2.65
DECEKAYFYMSCLVKHKRIHWREK [S21W]	1.61
DEYEKAYFYMSCLVKHKRIHSREK [C3Y]	2.67

Variants of: B2
Assay: as above
Conditions: c terminus: a fixed tail appended

Variant	protein stability index
AEAEENKQIIRKHAQTFVALCATD [P1A]	3.14
CEAEENKQIIRKHAQTFVALCATD [P1C]	1.97
DEAEENKQIIRKHAQTFVALCATD [P1D]	3.29
EEAEENKQIIRKHAQTFVALCATD [P1E]	3.45
FEAEENKQIIRKHAQTFVALCATD [P1F]	2.44
GEAEENKQIIRKHAQTFVALCATD [P1G]	2.78
HEAEENKQIIRKHAQTFVALCATD [P1H]	3.19
IEAEENKQIIRKHAQTFVALCATD [P1I]	2.36
KEAEENKQIIRKHAQTFVALCATD [P1K]	2.07
LEAEENKQIIRKHAQTFVALCATD [P1L]	2.76
MEAEENKQIIRKHAQTFVALCATD [P1M]	2.68
NEAEENKQIIRKHAQTFVALCATD [P1N]	2.52
QEAEENKQIIRKHAQTFVALCATD [P1Q]	2.78
REAEENKQIIRKHAQTFVALCATD [P1R]	2.59
SEAEENKQIIRKHAQTFVALCATD [P1S]	2.34
TEAEENKQIIRKHAQTFVALCATD [P1T]	2.18
VEAEENKQIIRKHAQTFVALCATD [P1V]	2.66
WEAEENKQIIRKHAQTFVALCATD [P1W]	3.02
YEAEENKQIIRKHAQTFVALCATD [P1Y]	3.2
PAAEENKQIIRKHAQTFVALCATD [E2A]	2.54
PCAEENKQIIRKHAQTFVALCATD [E2C]	2.13
PDAEENKQIIRKHAQTFVALCATD [E2D]	2.75
PFAEENKQIIRKHAQTFVALCATD [E2F]	2.14
PGAEENKQIIRKHAQTFVALCATD [E2G]	2.92
PHAEENKQIIRKHAQTFVALCATD [E2H]	2.34
PIAEENKQIIRKHAQTFVALCATD [E2I]	2.27
PKAEENKQIIRKHAQTFVALCATD [E2K]	2.73

Variant	protein stability index
PLAEENKQIIRKHAQTFVALCATD [E2L]	2.08
PMAEENKQIIRKHAQTFVALCATD [E2M]	2.98
PNAEENKQIIRKHAQTFVALCATD [E2N]	2.32
PPAEENKQIIRKHAQTFVALCATD [E2P]	2.83
PQAEENKQIIRKHAQTFVALCATD [E2Q]	2.53
PRAEENKQIIRKHAQTFVALCATD [E2R]	1.87
PSAEENKQIIRKHAQTFVALCATD [E2S]	2.4
PTAEENKQIIRKHAQTFVALCATD [E2T]	2.29
PVAEENKQIIRKHAQTFVALCATD [E2V]	2.8
PWAEENKQIIRKHAQTFVALCATD [E2W]	1.81
PYAEENKQIIRKHAQTFVALCATD [E2Y]	2.69
PECEENKQIIRKHAQTFVALCATD [A3C]	2.31
PEDEENKQIIRKHAQTFVALCATD [A3D]	3.27
PEEEENKQIIRKHAQTFVALCATD [A3E]	3.02
PEFEENKQIIRKHAQTFVALCATD [A3F]	2.71
PEGEENKQIIRKHAQTFVALCATD [A3G]	2.8
PEHEENKQIIRKHAQTFVALCATD [A3H]	2.02
PEIEENKQIIRKHAQTFVALCATD [A3I]	2.93
PEKEENKQIIRKHAQTFVALCATD [A3K]	2.8
PELEENKQIIRKHAQTFVALCATD [A3L]	2.89
PEMEENKQIIRKHAQTFVALCATD [A3M]	2.81
PENEENKQIIRKHAQTFVALCATD [A3N]	3.15
PEPEENKQIIRKHAQTFVALCATD [A3P]	2.43
PEQEENKQIIRKHAQTFVALCATD [A3Q]	2.86
PEREENKQIIRKHAQTFVALCATD [A3R]	3.26
PESEENKQIIRKHAQTFVALCATD [A3S]	2.46
PETEENKQIIRKHAQTFVALCATD [A3T]	2.15

Variant	protein stability index
PEVEENKQIIRKHAQTFVALCATD [A3V]	3
PEWEENKQIIRKHAQTFVALCATD [A3W]	2.85
PEYEENKQIIRKHAQTFVALCATD [A3Y]	2.81
PEAAENKQIIRKHAQTFVALCATD [E4A]	2.47
PEACENKQIIRKHAQTFVALCATD [E4C]	3.62
PEADENKQIIRKHAQTFVALCATD [E4D]	2.64
PEAFENKQIIRKHAQTFVALCATD [E4F]	1.92
PEAGENKQIIRKHAQTFVALCATD [E4G]	2.42
PEAHENKQIIRKHAQTFVALCATD [E4H]	2.67
PEAIENKQIIRKHAQTFVALCATD [E4I]	2.2
PEAKENKQIIRKHAQTFVALCATD [E4K]	2.04
PEALENKQIIRKHAQTFVALCATD [E4L]	2.37
PEAMENKQIIRKHAQTFVALCATD [E4M]	2.23
PEANENKQIIRKHAQTFVALCATD [E4N]	2.36
PEAPENKQIIRKHAQTFVALCATD [E4P]	3.27
PEAQENKQIIRKHAQTFVALCATD [E4Q]	2.39
PEARENKQIIRKHAQTFVALCATD [E4R]	2.33
PEASENKQIIRKHAQTFVALCATD [E4S]	2.21
PEATENKQIIRKHAQTFVALCATD [E4T]	2.1
PEAVENKQIIRKHAQTFVALCATD [E4V]	2.38
PEAWENKQIIRKHAQTFVALCATD [E4W]	1.95
PEAYENKQIIRKHAQTFVALCATD [E4Y]	2.08
PEAEANKQIIRKHAQTFVALCATD [E5A]	2.05
PEAECNKQIIRKHAQTFVALCATD [E5C]	1.86
PEAEDNKQIIRKHAQTFVALCATD [E5D]	2.93
PEAEFNKQIIRKHAQTFVALCATD [E5F]	2.12
